The results in this text go back to paper PMC9352680, “A comprehensive thermodynamic model for RNA binding by the Saccharomyces cerevisiae Pumilio protein PUF4”.

The data set addresses T1, PUF4 RNA-binding domain (Saccharomyces cerevisiae, UniProt P25339 537-888).
T1 sequence: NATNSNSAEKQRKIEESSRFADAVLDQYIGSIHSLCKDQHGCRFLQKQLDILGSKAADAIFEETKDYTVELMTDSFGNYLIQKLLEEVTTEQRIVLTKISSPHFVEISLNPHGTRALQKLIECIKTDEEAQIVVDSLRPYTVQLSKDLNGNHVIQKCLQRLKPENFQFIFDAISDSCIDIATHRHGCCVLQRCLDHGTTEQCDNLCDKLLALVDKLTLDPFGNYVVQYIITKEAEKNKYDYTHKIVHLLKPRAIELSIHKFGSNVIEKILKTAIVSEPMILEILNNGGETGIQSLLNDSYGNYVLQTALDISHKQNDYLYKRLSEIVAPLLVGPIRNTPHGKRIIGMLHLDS
Kind of data set: Mg; RNA-MaP; 20 mM Na-HEPES pH 7.4, 30 mM KOAc, 0.75 mM MgCl2, 0.1% Tween-20, 5% glycerol, 0.1 mg/mL BSA, 2 mM DTT; 25 C; 0.0125-409.6 nM protein. The conditions noted are these: tags: N-His6-TEV cleaved; C-SNAP kept, Cy3B-labelled; label: tethered on chip by stalled RNA polymerase.

B1: Ic_S1_P4E.1_K4.1_C4.1_H4.1_A4.1_[A6G]_[T7C]_F4.1_[T8A]_T4.1 (ssRNA)
RNA: UCUCUUUGUAUGCAAUCUCUU
As for B1, binding was characterised by a dissociation constant (Kd) of 516 nM.

B2: Ic_S1_P4E.1_K4.1_C4.1_H4.1_A4.1_[A6G]_[T7A]_F4.1_[A9C]_T4.1 (ssRNA)
RNA: UCUCUUUGUAUGAUCUCUCUU
As to B2, the affinity, expressed as Kd, was 148 nM.

B3: Ic_S1_P4E.1_K4.1_C4.1_H4.1_A4.1_[A6G]_F4.1_[T8C]_[A9C]_T4.1 (ssRNA)
RNA: UCUCUUUGUAUGUCCUCUCUU
Molecule B3 showed a Kd of 564 nM.

B4: Ic_S1_P4E.1_K4.1_C4.1_H4.1_A4.1_[A6G]_[T7C]_F4.1_[A9G]_T4.1 (ssRNA)
RNA: UCUCUUUGUAUGCUGUCUCUU
B4 had a dissociation constant (Kd) of 685 nM.

B5: Ic_S1_P4E.1_K4.1_C4.1_H4.1_A4.1_[A6G]_F4.1_[T8A]_[A9T]_T4.1 (ssRNA)
RNA: UCUCUUUGUAUGUAUUCUCUU
As for B5, the Kd worked out at 71.2 nM.

B6: Ic_S1_P4E.1_K4.1_C4.1_H4.1_A4.1_[T5A]_[T7A]_F4.1_[A9C]_T4.1 (ssRNA)
RNA: UCUCUUUGUAAAAUCUCUCUU
Turning to B6, the affinity, expressed as Kd, was 54.4 nM.

B7: Ic_S1_P4E.1_K4.1_C4.1_H4.1_A4.1_[T5A]_[T7A]_F4.1_[A9G]_T4.1 (ssRNA)
RNA: UCUCUUUGUAAAAUGUCUCUU
For B7, the Kd was found to be 27.1 nM.

B8: Ic_S1_P4E.1_K4.1_C4.1_H4.1_A4.1_[T5A]_[T7A]_F4.1_[T8C]_[A9C]_T4.1 (ssRNA)
RNA: UCUCUUUGUAAAACCUCUCUU
Turning to B8, the Kd is 523 nM.

B9: Ic_S1_P4E.1_K4.1_C4.1_H4.1_A4.1_[T5A]_[T7A]_F4.1_[T8A]_[A9C]_T4.1 (ssRNA)
RNA: UCUCUUUGUAAAAACUCUCUU
As to B9, the dissociation constant Kd worked out at 526 nM.

B10: Ic_S1_P4E.1_K4.1_C4.1_H4.1_A4.1_[T5A]_[T7C]_F4.1_[A9G]_T4.1 (ssRNA)
RNA: UCUCUUUGUAAACUGUCUCUU
As for B10, the Kd was 17.2 nM.

B11: Ic_S1_P4E.1_K4.1_C4.1_H4.1_A4.1_[A6G]_[T7G]_F4.1_[T8C]_[A9T]_T4.1 (ssRNA)
RNA: UCUCUUUGUAUGGCUUCUCUU
B11 showed a dissociation constant Kd of 1630 nM.

B12: Ic_S1_P4E.1_K4.1_C4.1_H4.1_A4.1_[A6G]_F4.1_[T8A]_[A9C]_T4.1 (ssRNA)
RNA: UCUCUUUGUAUGUACUCUCUU
Molecule B12 had a Kd of 41.5 nM.

B13: Ic_S1_P4E.1_K4.1_C4.1_H4.1_A4.1_[A6G]_[T7C]_F4.1_[T8A]_[A9G]_T4.1 (ssRNA)
RNA: UCUCUUUGUAUGCAGUCUCUU
On to B13, for which the dissociation constant Kd was greater than 2300 nM.

B14: Ic_S1_P4E.1_K4.1_C4.1_H4.1_A4.1_[T5A]_[T7C]_F4.1_[A9C]_T4.1 (ssRNA)
RNA: UCUCUUUGUAAACUCUCUCUU
In the case of B14, the affinity, expressed as Kd, was 33.8 nM.

B15: Ic_S1_P4E.1_K4.1_C4.1_H4.1_A4.1_[A6G]_[T7C]_F4.1_[T8G]_[A9C]_T4.1 (ssRNA)
RNA: UCUCUUUGUAUGCGCUCUCUU
B15 gave a Kd greater than 2300 nM.

B16: Ic_S1_P4E.1_K4.1_C4.1_H4.1_A4.1_[T5A]_[T7A]_F4.1_[T8G]_[A9C]_T4.1 (ssRNA)
RNA: UCUCUUUGUAAAAGCUCUCUU
For B16, binding was put at a Kd of 2280 nM.

B17: Ic_S1_P4E.1_K4.1_C4.1_H4.1_A4.1_[A6G]_[T7G]_F4.1_[T8C]_[A9C]_T4.1 (ssRNA)
RNA: UCUCUUUGUAUGGCCUCUCUU
Turning to B17, the dissociation constant Kd was greater than 2300 nM.

B18: Ic_S1_P4E.1_K4.1_C4.1_H4.1_A4.1_[T5A]_[T7A]_F4.1_[T8C]_[A9T]_T4.1 (ssRNA)
RNA: UCUCUUUGUAAAACUUCUCUU
Molecule B18 registered a Kd of 106 nM.

B19: Ic_S1_P4E.1_K4.1_C4.1_H4.1_A4.1_[A6G]_[T7C]_F4.1_[T8A]_[A9T]_T4.1 (ssRNA)
RNA: UCUCUUUGUAUGCAUUCUCUU
B19 displayed a dissociation constant Kd of 565 nM.

B20: Ic_S1_P3E.1_K3.1_C3.1_H3.1_A3.1_[T5C]_F3.1_[T7A]_T3.1 (ssRNA)
RNA: UCUCUUUGUACAAAUCUCUU
The molecule B20 showed a Kd of 100 nM.

B21: Ic_S1_P4E.1_K4.1_C4.1_H4.1_A4.1_[A6G]_[T7A]_F4.1_[A9G]_T4.1 (ssRNA)
RNA: UCUCUUUGUAUGAUGUCUCUU
For the molecule B21, binding was characterised by a dissociation constant (Kd) of 56.7 nM.

B22: Ic_S1_P4E.1_K4.1_C4.1_H4.1_A4.1_[A6G]_[T7A]_F4.1_[T8C]_[A9T]_T4.1 (ssRNA)
RNA: UCUCUUUGUAUGACUUCUCUU
Take B22: binding was put at a Kd of 804 nM.

B23: Ic_S1_P4E.1_K4.1_C4.1_H4.1_A4.1_[T5A]_[T7C]_F4.1_[A9T]_T4.1 (ssRNA)
RNA: UCUCUUUGUAAACUUUCUCUU
B23 returned a Kd of 24.7 nM.

B24: Ic_S1_P4E.1_K4.1_C4.1_H4.1_A4.1_[A6G]_[T7C]_F4.1_[T8G]_[A9T]_T4.1 (ssRNA)
RNA: UCUCUUUGUAUGCGUUCUCUU
Take B24: the affinity, expressed as Kd, was 1210 nM.

B25: Ic_S1_P4E.1_K4.1_C4.1_H4.1_A4.1_[T5A]_[T7A]_F4.1_[A9T]_T4.1 (ssRNA)
RNA: UCUCUUUGUAAAAUUUCUCUU
B25 showed a dissociation constant Kd of 33.5 nM.

B26: Ic_S1_P4E.1_K4.1_C4.1_H4.1_A4.1_[A6G]_F4.1_[T8A]_[A9G]_T4.1 (ssRNA)
RNA: UCUCUUUGUAUGUAGUCUCUU
Molecule B26 yielded a dissociation constant (Kd) of 106 nM.

B27: Ic_S1_P4E.1_K4.1_C4.1_H4.1_A4.1_[A6G]_[T7C]_F4.1_[A9T]_T4.1 (ssRNA)
RNA: UCUCUUUGUAUGCUUUCUCUU
For the molecule B27, the dissociation constant (Kd) worked out at 96.1 nM.

B28: Ic_S1_P4E.1_K4.1_C4.1_H4.1_A4.1_[A6G]_[T7C]_F4.1_[A9C]_T4.1 (ssRNA)
RNA: UCUCUUUGUAUGCUCUCUCUU
The molecule B28 displayed a Kd of 677 nM.

B29: Ic_S1_P4E.1_K4.1_C4.1_H4.1_A4.1_[A6G]_F4.1_[T8G]_[A9G]_T4.1 (ssRNA)
RNA: UCUCUUUGUAUGUGGUCUCUU
The molecule B29 gave a Kd of 1000 nM.

B30: Ic_S1_P4E.1_K4.1_C4.1_H4.1_A4.1_[T5A]_[T7C]_F4.1_[T8A]_[A9T]_T4.1 (ssRNA)
RNA: UCUCUUUGUAAACAUUCUCUU
In turn, B30 showed a Kd of 165 nM.

B31: Ic_S1_P3E.1_K3.1_C3.1_H3.1_A3.1_[T5A]_F3.1_[T7A]_T3.1 (ssRNA)
RNA: UCUCUUUGUAAAAAUCUCUU
Take B31: the Kd came to 367 nM.

B32: Ic_S1_P4E.1_K4.1_C4.1_H4.1_A4.1_[T5A]_[T7A]_F4.1_[T8A]_[A9T]_T4.1 (ssRNA)
RNA: UCUCUUUGUAAAAAUUCUCUU
Turning to B32, the affinity, expressed as Kd, was 373 nM.

B33: Ic_S1_P4E.1_K4.1_C4.1_H4.1_A4.1_[A6G]_[T7G]_F4.1_[A9C]_T4.1 (ssRNA)
RNA: UCUCUUUGUAUGGUCUCUCUU
For the molecule B33, binding was put at a Kd of 1260 nM.

B34: Ic_S1_P4E.1_K4.1_C4.1_H4.1_A4.1_[A6G]_[T7G]_F4.1_[T8C]_[A9G]_T4.1 (ssRNA)
RNA: UCUCUUUGUAUGGCGUCUCUU
Regarding B34, the Kd is greater than 2300 nM.

B35: Ic_S1_P4E.1_K4.1_C4.1_H4.1_A4.1_[A6G]_[T7C]_F4.1_[T8C]_T4.1 (ssRNA)
RNA: UCUCUUUGUAUGCCAUCUCUU
As for B35, the equilibrium dissociation constant (Kd) came out at 472 nM.

B36: Ic_S1_P3E.1_K3.1_C3.1_H3.1_A3.1_[T5C]_F3.1_[T7C]_T3.1 (ssRNA)
RNA: UCUCUUUGUACACAUCUCUU
The molecule B36 yielded a Kd of 46.1 nM.

B37: Ic_S1_P4E.1_K4.1_C4.1_H4.1_A4.1_[A6G]_F4.1_[T8G]_[A9T]_T4.1 (ssRNA)
RNA: UCUCUUUGUAUGUGUUCUCUU
On to B37, for which the Kd amounted to 92.5 nM.

B38: Ic_S1_P4E.1_K4.1_C4.1_H4.1_A4.1_[T5A]_F4.1_[T8G]_[A9C]_T4.1 (ssRNA)
RNA: UCUCUUUGUAAAUGCUCUCUU
As to B38, binding was put at a Kd of 377 nM.

B39: Ic_S1_P4E.1_K4.1_C4.1_H4.1_A4.1_[T5A]_[T7A]_F4.1_[T8C]_T4.1 (ssRNA)
RNA: UCUCUUUGUAAAACAUCUCUU
For the molecule B39, the affinity, expressed as Kd, was 41.1 nM.

B40: Ic_S1_P4E.1_K4.1_C4.1_H4.1_A4.1_[T5A]_F4.1_[T8A]_[A9T]_T4.1 (ssRNA)
RNA: UCUCUUUGUAAAUAUUCUCUU
With B40, binding was put at a Kd of 26.2 nM.

B41: Ic_S1_P4E.1_K4.1_C4.1_H4.1_A4.1_[T5A]_F4.1_[T8A]_[A9C]_T4.1 (ssRNA)
RNA: UCUCUUUGUAAAUACUCUCUU
Take B41: the equilibrium dissociation constant (Kd) was found to be 36.7 nM.

B42: Ic_S1_P4E.1_K4.1_C4.1_H4.1_A4.1_[T5A]_[T7C]_F4.1_[T8A]_T4.1 (ssRNA)
RNA: UCUCUUUGUAAACAAUCUCUU
In turn, B42 yielded an equilibrium dissociation constant (Kd) of 57.4 nM.

B43: Ib_S1_P3E.1_K3.1_C3.1_H3.1_A3.1_[T5A]_F3.1_[T7C]_T3.1 (ssRNA)
RNA: UCUCUUUGUAAACAUCUCUU
B43 registered an equilibrium dissociation constant (Kd) of 424 nM.

B44: Ic_S1_P4E.1_K4.1_C4.1_H4.1_A4.1_[T5A]_F4.1_[T8C]_[A9C]_T4.1 (ssRNA)
RNA: UCUCUUUGUAAAUCCUCUCUU
In turn, B44 came in with a Kd of 368 nM.

B45: Ic_S1_P4E.1_K4.1_C4.1_H4.1_A4.1_[A6G]_[T7G]_F4.1_[A9T]_T4.1 (ssRNA)
RNA: UCUCUUUGUAUGGUUUCUCUU
For the molecule B45, the Kd is 542 nM.

B46: Ic_S1_P4E.1_K4.1_C4.1_H4.1_A4.1_[T5A]_F4.1_[T8A]_[A9G]_T4.1 (ssRNA)
RNA: UCUCUUUGUAAAUAGUCUCUU
With B46, the dissociation constant Kd was determined as 11.5 nM.

The Kd is the concentration at which binding is half-saturated. Low readings indicate a tighter complex, high ones a looser complex.
